Earlier results on one molecule are cited in US12258594B2, “Cas proteins with reduced immunogenicity and methods of screening thereof” (THE BROAD INSTITUTE, INC., priority 2018, dated 2025).

This data set deals with target DNA. To be noted: SaCas9 mutants.

B1: N580A: N580A mutant of SaCas9 (protein, UniProt J7RUA5 1-1053, looked up, variant N580A)
CRISPR-associated …: MKRNYILGLDIGITSVGYGIIDYETRDVIDAGVRLFKEANVENNEGRRSKRGARRLKRRRRHRIQRVKKLLFDYNLLTDHSELSGINPYEARVKGLSQKLSEEEFSAALLHLAKRRGVHNVNEVEEDTGNELSTKEQISRNSKALEEKYVAELQLERLKKDGEVRGSINRFKTSDYVKEAKQLLKVQKAYHQLDQSFIDTYIDLLETRRTYYEGPGEGSPFGWKDIKEWYEMLMGHCTYFPEELRSVKYAYNADLYNALNDLNNLVITRDENEKLEYYEKFQIIENVFKQKKKPTLKQIAKEILVNEEDIKGYRVTSTGKPEFTNLKVYHDIKDITARKEIIENAELLDQIAKILTIYQSSEDIQEELTNLNSELTQEEIEQISNLKGYTGTHNLSLKAINLILDELWHTNDNQIAIFNRLKLVPKKVDLSQQKEIPTTLVDDFILSPVVKRSFIQSIKVINAIIKKYGLPNDIIIELAREKNSKDAQKMINEMQKRNRQTNERIEEIIRTTGKENAKYLIEKIKLHDMQEGKCLYSLEAIPLEDLLNNPFNYEVDHIIPRSVSFDNSFNNKVLVKQEEASKKGNRTPFQYLSSSDSKISYETFKKHILNLAKGKGRISKTKKEYLLEERDINRFSVQKDFINRNLVDTRYATRGLMNLLRSYFRVNNLDVKVKSINGGFTSFLRRKWKFKKERNKGYKHHAEDALIIANADFIFKEWKKLDKAKKVMENQMFEEKQAESMPEIETEQEYKEIFITPHQIKHIKDFKDYKYSHRVDKKPNRELINDTLYSTRKDDKGNTLIVNNLNGLYDKDNDKLKKLINKSPEKLLMYHHDPQTYQKLKLIMEQYGDEKNPLYKYYEETGNYLTKYSKKDNGPVIKKIKYYGNKLNAHLDITDDYPNSRNKVVKLSLKPYRFDVYLDNGVYKFVTVKNLDVIKKENYYEVNSKCYEEAKKLKKISNQAEFIASFYNNDLIKINGELYRVIGVNNDLLNRIEVNMIDITYREYLENMNDKRPPRIIKTIASKTQSIKKYSTDILGNLYEVKSKKHPQIIKKG
In the case of B1, the DNA cleavage activity entry was “almost completely lacked DNA cleavage activity”.
